Measured values as given in article PMC3985960 (2014).

Target: T1, methylamine dehydrogenase (quinone MADH) (Paracoccus denitrificans, UniProt P22619)
T1 chain 1: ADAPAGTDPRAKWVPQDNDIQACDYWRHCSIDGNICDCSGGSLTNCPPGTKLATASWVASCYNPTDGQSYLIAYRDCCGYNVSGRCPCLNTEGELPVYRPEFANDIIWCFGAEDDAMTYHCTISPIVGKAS
T1 chain 2: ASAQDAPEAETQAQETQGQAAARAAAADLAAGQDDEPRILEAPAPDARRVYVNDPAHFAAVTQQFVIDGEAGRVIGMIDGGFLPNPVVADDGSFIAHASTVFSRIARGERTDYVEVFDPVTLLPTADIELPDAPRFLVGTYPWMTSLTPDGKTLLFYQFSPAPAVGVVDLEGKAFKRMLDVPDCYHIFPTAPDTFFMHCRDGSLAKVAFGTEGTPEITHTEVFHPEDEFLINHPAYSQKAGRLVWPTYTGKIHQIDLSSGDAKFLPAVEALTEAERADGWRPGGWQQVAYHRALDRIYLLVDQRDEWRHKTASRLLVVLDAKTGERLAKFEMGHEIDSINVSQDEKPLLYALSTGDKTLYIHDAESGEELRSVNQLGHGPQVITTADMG
Test: single-turnover kinetics

B1: MauG (protein)
chain: EQARPADDALAALGAQLFVDPALSRNATQSCATCHDPARAFTDPREGKAGLAVSVGDDGQSHGDRNTPTLGYAALVPAFHRDANGKYKGGQFWDGRADDLKQQAGQPMLNPVEMAMPDRAAVAARLRDDPAYRTGFEALFGKGVLDDPERAFDAAAEALAAYQATGEFSPFDSKYDRVMRGEEKFTPLEEFGYTVFITWNCRLCHMQRKQGVAERETFTNFEYHNIGLPVNETAREASGLGADHVDHGLLARPGIEDPAQSGRFKVPSLRNVAVTGPYMHNGVFTDLRTAILFYNKYTSRRPEAKINPETGAPWGEPEVARNLSLAELQSGLMLDDGRVDALVAFLETLTDRRYEPLLEESRAAQKD
Work on B1 yielded a Kd of 10.4 µM.
